Source: patent US20210040184A1

Tests used:
[1] = target: HIV-1 DU422.1 envelope (Env) on Env.IMC.LucR virus (HIV-1 clade C); assay: cell-based or functional assay
[2] = target: HIV-1 AC10.0.29 envelope (Env) on Env.IMC.LucR virus (HIV-1 clade B); assay: cell-based or functional assay
[3] = target: HIV-1 CNE20 envelope (Env) on Env.IMC.LucR virus (HIV-1 clade BC); assay: cell-based or functional assay
[4] = target: HIV-1 DU172.17 envelope (Env) on Env.IMC.LucR virus (HIV-1 clade C); assay: cell-based or functional assay
[5] = target: HIV-1 REJO4541.67 envelope (Env) on Env.IMC.LucR virus (HIV-1 clade B); assay: cell-based or functional assay
[6] = target: HIV-1 X1632_S2_B10 envelope (Env) on Env.IMC.LucR virus (HIV-1 clade G); assay: cell-based or functional assay
[7] = target: HIV-1 CAP45.2.00.G3 envelope (Env) on Env.IMC.LucR virus (HIV-1 clade C); assay: cell-based or functional assay
[8] = target: Clade C DU172.17 gp120 protein (HIV-1 Clade C, DU172.17); assay: BLI (Octet), IgG on anti-hIgG Fc sensor, gp120 analyte, 1:1 fit
[9] = target: Clade B BaL gp120 protein (HIV-1 Clade B, BaL); assay: as above

With 3BNC117 (antibody) the IC50 of virus neutralization (TZM-BL, luciferase) [1] was over 50 mg/L, the IC50 of virus neutralization (TZM-BL, luciferase) [2] was 11 mg/L and the IC50 of virus neutralization (TZM-BL, luciferase) [3] was over 50 mg/L. It also gave an IC50 of virus neutralization (TZM-BL, luciferase) [4] of 1.25 mg/L, an IC50 of virus neutralization (TZM-BL, luciferase) [5] of 0.07 mg/L and an IC50 of virus neutralization (TZM-BL, luciferase) [6] of 31.2 mg/L. It also gave an IC50 of virus neutralization (TZM-BL, luciferase) [7] of 2.7 mg/L, a Kd [8] of 0.0958 µM and a fold (KD vs average of 4 runs of L1A2) [8] of 3.77 fold. It also gave a koff [8] of 0.00457 s⁻¹, a kon [8] of 47700 M⁻¹ s⁻¹ and a Kd [9] of 0.00329 µM. The fold (KD vs average of 4 runs of L1A2) [9] was 6.07 fold, the koff [9] was 0.000291 s⁻¹ and the kon [9] was 88500 M⁻¹ s⁻¹.
